Source: paper PMC10239819
Blank lines part the entries; values can stand above or below the substance they belong to.

Legend:
[1] = target: C3bB, the AP C3 pro-convertase (factor B complexed with C3b) (human)
Factor B (Homo sapiens) = Factor B (Homo sapiens) (UniProt P00751); details: cited from earlier work
[2] = target: C3b prepared from human EDTA plasma (human)
[3] = target: C3b prepared from human EDTA plasma (human); remark: listed apart in the source

Sequence of tag-free recombinant human factor D (mature FD) (P00746 26-253): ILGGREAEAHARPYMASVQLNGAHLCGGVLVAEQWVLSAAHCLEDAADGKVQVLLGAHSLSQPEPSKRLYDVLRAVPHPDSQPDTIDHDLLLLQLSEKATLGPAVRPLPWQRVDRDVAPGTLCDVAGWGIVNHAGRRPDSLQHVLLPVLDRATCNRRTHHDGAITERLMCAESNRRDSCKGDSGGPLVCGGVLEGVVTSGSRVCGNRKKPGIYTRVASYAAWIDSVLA
Sequence of Factor B (Homo sapiens) (P00751 26-259): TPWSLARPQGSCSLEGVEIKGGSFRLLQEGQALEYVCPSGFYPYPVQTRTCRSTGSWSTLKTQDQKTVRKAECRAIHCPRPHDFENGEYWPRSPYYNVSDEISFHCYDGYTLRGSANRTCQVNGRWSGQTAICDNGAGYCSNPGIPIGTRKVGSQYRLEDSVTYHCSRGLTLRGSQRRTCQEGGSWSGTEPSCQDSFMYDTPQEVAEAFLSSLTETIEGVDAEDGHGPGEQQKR
Sequence of C3b C3b (P01024 566-670): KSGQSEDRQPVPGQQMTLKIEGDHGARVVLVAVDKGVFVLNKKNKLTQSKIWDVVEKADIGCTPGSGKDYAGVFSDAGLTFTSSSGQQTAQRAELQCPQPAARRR

kobs/[E]T (estimate of kcat/KM) of the cleavage of C3bB (1.1 uM) by FD (0.25 nM), SDS-PAGE densitometry of Bb, 37 °C [1]: 6.5e+06 M⁻¹ s⁻¹
Substance: tag-free recombinant human factor D (mature FD) (from UniProt P00746 26-253) (enzyme)

Substance: C3b C3b (from UniProt P01024)
Kd (Factor B (Homo sapiens)): 1400 nM

enhancement of the cleavage of FB by FD (ratio of kobs/[E]T on C3bB and on free FB; SDS-PAGE densitometry of Bb, 37 °C) [2]: 2e+07 fold
enhancement of the cleavage of FB by MASP-1cf (ratio of kobs/[E]T on C3bB and on free FB; SDS-PAGE densitometry of Bb, 37 °C) [3]: 100 fold
Substance: human, serum-derived, purified factor B (natural protein)
